Results: patent US20250215081A1
Numbering of substitutions follows the chain as printed. Values belong to the molecule of their own block, whether it stands above or below them.

Legend:
[1] = biological target: human Fc gamma receptor 1A (human) (UniProt P12314); assay: SPR (Biacore T200), antibody amine-coupled on CM5 (~950 RU), FcγR1A as analyte
CD3-Fc = assay: SPR (Biacore T200, 25 C), CD3-Fc captured on anti-hFc CM5 chip, antibody as analyte, 1:1 model

Sequence of UniProt P12314 (P12314 16-288 limits assumed): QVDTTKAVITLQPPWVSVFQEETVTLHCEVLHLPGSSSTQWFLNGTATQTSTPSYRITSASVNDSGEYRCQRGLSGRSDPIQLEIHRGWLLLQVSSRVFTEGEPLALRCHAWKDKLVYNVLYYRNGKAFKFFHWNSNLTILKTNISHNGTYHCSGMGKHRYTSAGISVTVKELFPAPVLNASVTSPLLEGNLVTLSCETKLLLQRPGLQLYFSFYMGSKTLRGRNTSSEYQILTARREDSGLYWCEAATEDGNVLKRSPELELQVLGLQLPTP

Molecule: Anti-CD3 DANAPA-IgG1 (D265A/N297A/P329A) (antibody)
Maximum response at 100 nM hFcgammaRIA (RU) [1]: 11 RU

Molecule: Anti-CD3 DAPASK-IgG1 (D265A/P329A/S267K) (antibody)
Maximum response at 100 nM hFcgammaRIA (RU) [1]: 13 RU

Molecule: Anti-CD3 GADAPA-IgG1 (G237A/D265A/P329A) (antibody)
Maximum response at 100 nM hFcgammaRIA (RU) [1]: 16 RU

Molecule: Anti-CD3 LALAGA-IgG1 (L234A/L235A/G237A) (antibody)
Maximum response at 100 nM hFcgammaRIA (RU) [1]: 15 RU

B2: anti-CD3 antibody CD3lo (mAb) (antibody, V domains shown)
VH: EVQLVESGGGLVQPGGSLKLSCAASGFTFNTYAMNWVRQASGKGLEWVGRIRSKYNNYATYYADSVKDRFTISRDDSKSTAYLQMNSLKTEDTAVYYCVRHGNFGNSYVSWFAYWGQGTLVTVSS
VL: QAVVTQEPSLTVSPGGTVTLTCRSSTGAVTTSNYANWVQQKPGQAPRGLIGGTNKRAPWTPARFSGSLLGDKAALTLSGAQPEDEAEYFCALWYSNLWVFGGGTKLTVL
Kd (CD3-Fc): 48 nM

B3: anti-CD3 antibody CD3med (mAb) (antibody, V domains shown)
VH: B2 VH with S79N, Y114H
VL: B2 VL with R23G, T31S, D71G, F89Y
Kd (CD3-Fc): 30 nM

Results, then the molecule that gave them:

Maximum response at 100 nM hFcgammaRIA (RU) [1]: 10 RU
Molecule: Anti-CD3 GADAPASK-IgG1 (G237A/D265A/P329A/S267K) (antibody)

Maximum response at 100 nM hFcgammaRIA (RU) [1]: 18 RU
Molecule: Anti-CD3 LALAPG-IgG1 (L234A/L235A/P329G) (antibody)

Maximum response at 100 nM hFcgammaRIA (RU) [1]: 9 RU
Molecule: Anti-CD3 LALASKPA-IgG1 (L234A/L235A/S267K/P329A) (antibody)

Kd (CD3-Fc): 16 nM
B1: anti-CD3 antibody CD3hi (mAb) (antibody, V domains shown)
VH: B2 VH with A81L
VL: B2 VL
